Test results published in patent US20170252458A1 (EISAI R AND D MANAGEMENT, published 2017).
“And” between values parts separate entries of the source, which are not always exact repeats. Equal values may be shown once.

B1: MORAb-003 (antibody, human IgG1, kappa, V domains shown)
VH: EVQLVESGGGVVQPGRSLRLSCSASGFTFSGYGLSWVRQAPGKGLEWVAMISSGGSYTYYADSVKGRFAISRDNAKNTLFLQMDSLRPEDTGVYFCARHGDDPAWFAYWGQGTPVTVSS
VL: DIQLTQSPSSLSASVGDRVTITCSVSSSISSNNLHWYQQKPGKAPKPWIYGTSNLASGVPSRFSGSGSGTDYTFTISSLQPEDIATYYCQQWSSYPYMYTFGQGTKVEIKR
notes: Humanized anti-human folate receptor alpha, unconjugated; also called farletuzumab
B2: MORAb003-ER1242287 (antibody, human IgG1, kappa, V domains shown)
VH: B1 VH
VL: B1 VL
modifications: Mal-PEG8-Val-Cit-pAB-eribulin on interchain cysteines, sites not given
notes: Antibody-drug conjugate
B3: MORAb003-ER1235638 (antibody, human IgG1, kappa, V domains shown)
VH: B1 VH
VL: B1 VL
modifications: Mal-(CH2)5-Val-Cit-pAB-eribulin on interchain cysteines, sites not given
notes: Antibody-drug conjugate
B4: MORAb003-ER1231679 (antibody, human IgG1, kappa, V domains shown)
VH: B1 VH
VL: B1 VL
modifications: Mal-PEG2-Ala-Ala-Asn-pAB-eribulin on interchain cysteines, sites not given
notes: Antibody-drug conjugate
B5: MORAb003-ER1231690 (antibody, human IgG1, kappa, V domains shown)
VH: B1 VH
VL: B1 VL
modifications: Mal-PEG2-(Ala-Ala-Asn-pAB)2-eribulin on interchain cysteines, sites not given
notes: Antibody-drug conjugate
B6: MORAb003-ER1231691 (antibody, human IgG1, kappa, V domains shown)
VH: B1 VH
VL: B1 VL
modifications: NHS-PEG2-Ala-Ala-Asn-pAB-eribulin on lysines, sites not given
notes: Antibody-drug conjugate; DAR 0.37 (LC-MS)
B7: MORAb003-ER1236941 (antibody, human IgG1, kappa, V domains shown)
VH: B1 VH
VL: B1 VL
modifications: NHS-(CH2)5-Val-Cit-pAB-eribulin on lysines, sites not given
notes: Antibody-drug conjugate; DAR 0.77 (LC-MS)
B8: MORAb003-ER1244129 (antibody, human IgG1, kappa, V domains shown)
VH: B1 VH
VL: B1 VL
modifications: NHS-PEG3-triazole-PEG3-disulfide-pAB-eribulin on lysines, sites not given
notes: Antibody-drug conjugate; DAR 0.24 (LC-MS)
B9: MORAb003-ER1236940 (antibody, human IgG1, kappa, V domains shown)
VH: B1 VH
VL: B1 VL
modifications: NHS-PEG2-Val-Cit-pAB-eribulin on lysines, sites not given
notes: Antibody-drug conjugate; DAR 0.72 (LC-MS)
B10: MORAb003-PEG2-eribulin (antibody, human IgG1, kappa, V domains shown)
VH: B1 VH
VL: B1 VL
modifications: Mal-PEG2-eribulin (non-cleavable) on interchain cysteines, sites not given
notes: Antibody-drug conjugate
B11: MORAb003-ER1242288 (antibody, human IgG1, kappa, V domains shown)
VH: B1 VH
VL: B1 VL
modifications: NHS-PEG9-Val-Cit-pAB-eribulin on lysines, sites not given
notes: Antibody-drug conjugate preparation; DAR 0.00 (LC-MS)
B12: MORAb003-ER1159569 (Lot NB3142-62A) (antibody, human IgG1, kappa, V domains shown)
VH: B1 VH
VL: B1 VL
modifications: Mal-PEG2-Val-Cit-pAB-eribulin on interchain cysteines, sites not given
notes: Antibody-drug conjugate; also called MORAb-003-VCP-eribulin
B13: MORAb003-PEG4-eribulin (antibody, human IgG1, kappa, V domains shown)
VH: B1 VH
VL: B1 VL
modifications: Mal-PEG4-eribulin (non-cleavable) on interchain cysteines, sites not given
notes: Antibody-drug conjugate
B14: MORAb003-ER1237505 (antibody, human IgG1, kappa, V domains shown)
VH: B1 VH
VL: B1 VL
modifications: Mal-PEG4-triazole-PEG3-sulfonamide-pAB-eribulin on interchain cysteines, sites not given
notes: Antibody-drug conjugate
B15: MORAb003-ER1243700 (antibody, human IgG1, kappa, V domains shown)
VH: B1 VH
VL: B1 VL
modifications: NHS-PEG3-triazole-PEG3-Val-Cit-pAB-eribulin on lysines, sites not given
notes: as for B11
B16: MORAb003-ER1159569 (Lot NB3073-88L) (antibody, human IgG1, kappa, V domains shown)
VH: B1 VH
VL: B1 VL
modifications: Mal-PEG2-Val-Cit-pAB-eribulin on interchain cysteines, sites not given
notes: as for B12
B17: MORAb003-ER1237504 (antibody, human IgG1, kappa, V domains shown)
VH: B1 VH
VL: B1 VL
modifications: Mal-PEG4-triazole-PEG3-disulfide-pAB-eribulin on interchain cysteines, sites not given
notes: Antibody-drug conjugate

target: T1, Recombinant human folate receptor alpha (human, UniProt P15328 25-234); assay: ELISA, recombinant human FRA coated
T1 construct: also called FRA; FR
T1 sequence (P15328 25-234 limits assumed): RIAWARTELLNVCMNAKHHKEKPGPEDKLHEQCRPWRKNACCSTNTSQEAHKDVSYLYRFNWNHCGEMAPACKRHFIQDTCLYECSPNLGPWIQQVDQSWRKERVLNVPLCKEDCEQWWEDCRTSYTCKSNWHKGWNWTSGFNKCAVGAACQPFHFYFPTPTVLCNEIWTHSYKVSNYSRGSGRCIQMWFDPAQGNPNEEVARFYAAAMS
Description: Coating solution was discarded and the plates were washed three times using 1× PBS with 0.05% Tween-20 (PBST) buffer. Plates were blocked in 300 μL blocking buffer (1% BSA in PBST) at room temperature for 2 hours on an orbital shaker. […] Blocking buffer was discarded and 100 μL/well of diluted antibody was added to the plates. Plates were incubated at room temperature for 2 hours on an orbital shaker. Antibody solution was discarded and plates were washed three times using PBST. 100 μL/well of goat-anti-human IgG (H+L)-HRP (1:10,000 dilution in blocking buffer) solution was added to the plates, and plates were incubated at room temperature for 1 hour on an orbital shaker. Secondary antibody solution was discarded and plates were washed three times using PBST. 100 μL/well of QuantaBlu fluorogenic peroxidase substrate working solution (Thermo, Cat No. 15169) was added to the plates, and plates were incubated at room temperature for 30 min. Fluorescence was read at excitation 325 nm/emission 420 nm using a SpectraMax M5 (Molecular Devices). Data was analyzed using SoftMaxPro 5.4.2 software with 4-parameter fitting.

Row | Binder | EC50
1 | B1 | 0.00629 µg/mL and 0.04 nM
2 | B2 | 0.0215 µg/mL and 0.14 nM
3 | B3 | 0.0153 µg/mL and 0.1 nM
4 | B4 | 0.0183 µg/mL and 0.12 nM
5 | B5 | 0.00892 µg/mL and 0.06 nM
6 | B6 | 0.0115 µg/mL and 0.08 nM
7 | B7 | 0.013 µg/mL and 0.09 nM
8 | B8 | 0.0143 µg/mL and 0.1 nM
9 | B9 | 0.017 µg/mL and 0.11 nM
10 | B10 | 0.00696 µg/mL and 0.05 nM
11 | B11 | 0.0144 µg/mL and 0.1 nM
12 | B12 | 0.12 nM and 0.0182 µg/mL
13 | B13 | 0.00931 µg/mL and 0.06 nM
14 | B14 | 0.0183 µg/mL and 0.12 nM
15 | B15 | 0.00622 µg/mL and 0.04 nM
16 | B16 | 0.0226 µg/mL and 0.15 nM
17 | B17 | 0.0298 µg/mL and 0.2 nM
